# Molecular target: Fes (UniProt P07332)
# Test: phosphorylation enrichment, bacterial display (enrichment ratio); higher = better substrate or ligand; peptides without Tyr show the background
# 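Wherever SH2 binding enrichment of the phosphorylated peptide, bacterial display is given: peptide library displayed on the E. coli surface as eCPX fusions, selected cells deep-sequenced, score is each peptide's frequency after selection divided by its frequency in the input.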
# 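Wherever phosphorylation enrichment, bacterial display is given: 11-residue human phosphosite peptides and single-mutation variants displayed on the E. coli surface, counted by deep sequencing, each peptide's frequency after selection divided by its frequency in the unselected input library; frequency after pTyr selection over input frequency; kinase dosed for 20-30% of maximal phosphorylation in three min.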
# Chain of Fes (P07332 whole entry, looked up): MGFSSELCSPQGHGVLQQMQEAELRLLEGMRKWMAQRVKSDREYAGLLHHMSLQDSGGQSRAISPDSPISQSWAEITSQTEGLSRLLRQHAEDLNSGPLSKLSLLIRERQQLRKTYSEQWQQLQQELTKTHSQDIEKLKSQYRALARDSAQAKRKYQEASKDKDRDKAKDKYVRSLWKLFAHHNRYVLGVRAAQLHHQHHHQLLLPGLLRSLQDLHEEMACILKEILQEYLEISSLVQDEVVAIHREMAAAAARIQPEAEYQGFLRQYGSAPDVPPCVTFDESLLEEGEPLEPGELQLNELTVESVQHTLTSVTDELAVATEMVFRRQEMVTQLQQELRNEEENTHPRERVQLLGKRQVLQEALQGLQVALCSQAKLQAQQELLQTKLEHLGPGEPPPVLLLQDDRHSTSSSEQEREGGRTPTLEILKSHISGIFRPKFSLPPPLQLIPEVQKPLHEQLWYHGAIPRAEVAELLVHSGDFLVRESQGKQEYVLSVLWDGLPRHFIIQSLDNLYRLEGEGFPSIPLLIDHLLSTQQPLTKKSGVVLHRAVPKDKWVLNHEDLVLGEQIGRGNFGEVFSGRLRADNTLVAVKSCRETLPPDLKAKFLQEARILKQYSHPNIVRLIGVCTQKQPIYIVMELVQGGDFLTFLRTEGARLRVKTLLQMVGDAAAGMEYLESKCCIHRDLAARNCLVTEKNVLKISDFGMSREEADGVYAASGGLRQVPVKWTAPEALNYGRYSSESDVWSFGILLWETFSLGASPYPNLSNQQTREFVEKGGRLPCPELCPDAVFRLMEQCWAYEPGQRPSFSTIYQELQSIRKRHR
row,Sequence,phosphorylation enrichment
1,EEQKKYYNAVK [SCN5A_Y1494_M1498V],0.789
2,HNVPIYEGYGL [ACTA1_Y168_A172G],5.48
3,EQKKFSNAMKK [SCN5A_Y1495_Y1495S_YF],0.473
4,SDFFAYSPVQE [H6PD_Y449_R453Q_YF],1.32
5,KKGIVYIFNGR [ITGAV_Y404],0.957
6,DNEYAYLKAII [HNF4A_Y288],1.01
7,GQAPGYSFTAA [CYCS_Y47_YF],0.509
8,KFDLMYAKHAF [TUBA1A_Y399_R402H],0.987
9,RGEKQYLAAPL [ALOX12_Y295],0.416
10,PMFTKYGNGLL [RPGRIP1L_Y196_S199G],1.1
11,KKFPDYIQIAR [SGMS2_Y59_M64R_YF],0.713
12,RFVSRYIFNRE [HLA-DQB1_Y62_T60S_YF],1.46
13,FIIFIYAMKKK [SLCO1B1_Y645_L643F_YF],1.23
14,NQDRTYFERVR [SPEN_Y632_S635R_YF],0.648
15,LRNIDYYRLDG [ATRX_Y2083],1.58
16,ADRNHYRRYRR [YBX1_Y145_P149R],0.861
17,SDMGQYQCLVF [AXL_Y115_T112M],1.22

row,Sequence,phosphorylation enrichment
1,DDLEVYLKHLL [SACS_Y3477],0.97
2,PLQKIYNYNVL [SLC4A1_Y553_T552I],1
3,LLEGKYEWQEV [CDKN1B_Y74_P69L],2.74
4,STSYDYCRVPM [BST2_Y8],0.892
5,GRLGEYDIDEV [SMS_Y134_V132G],1.45
6,HITQVYGFYDE [PPP2CA_Y127_Q122H],1.79
7,RFLERYIFNPE [HLA-DPB1_Y57_R61P_YF],1.25
8,KSLFHHRQYSA [CPS1_Y1491_Y1491H],0.547
9,KKKKQYKDKFL [CASK_Y708_YF],0.642
10,DRLANYLEKVR [KRT40_Y103_S102N],0.74
11,CGTPEYRAPEI [PRKACA_Y205_L206R],1.35
12,EQYELYCEMGS [CBL_Y371],1.61
13,DQLVKYGVNPG [TMPO_Y127],0.605
14,CDIPRYIVSQL [MAST2_Y461],1.02
15,PFTDPYFDFEI [ZC3H18_Y371_A368T_YF],1.88
16,GMEIVYVFVKK [DNAI2_Y5_YF],1.44

# Molecular target: SHP2-C SH2
# Test: SH2 binding enrichment of the phosphorylated peptide, bacterial display (enrichment ratio); higher = better substrate or ligand; peptides without Tyr show the background
row,Sequence,SH2 binding enrichment
1,EEQKKYYNAVK [SCN5A_Y1494_M1498V],0.878
2,HNVPIYEGYGL [ACTA1_Y168_A172G],0.886
3,EQKKFSNAMKK [SCN5A_Y1495_Y1495S_YF],0.64
4,SDFFAYSPVQE [H6PD_Y449_R453Q_YF],0.639
5,KKGIVYIFNGR [ITGAV_Y404],1.61
6,DNEYAYLKAII [HNF4A_Y288],0.513
7,GQAPGYSFTAA [CYCS_Y47_YF],0.8
8,KFDLMYAKHAF [TUBA1A_Y399_R402H],0.772
9,RGEKQYLAAPL [ALOX12_Y295],0.431
10,PMFTKYGNGLL [RPGRIP1L_Y196_S199G],0.474
11,KKFPDYIQIAR [SGMS2_Y59_M64R_YF],0.884
12,RFVSRYIFNRE [HLA-DQB1_Y62_T60S_YF],1.2
13,FIIFIYAMKKK [SLCO1B1_Y645_L643F_YF],1.4
14,NQDRTYFERVR [SPEN_Y632_S635R_YF],0.547
15,LRNIDYYRLDG [ATRX_Y2083],11.9
16,ADRNHYRRYRR [YBX1_Y145_P149R],0.467
17,SDMGQYQCLVF [AXL_Y115_T112M],0.916

row,Sequence,SH2 binding enrichment
1,DDLEVYLKHLL [SACS_Y3477],0.605
2,PLQKIYNYNVL [SLC4A1_Y553_T552I],0.638
3,LLEGKYEWQEV [CDKN1B_Y74_P69L],0.464
4,STSYDYCRVPM [BST2_Y8],0.937
5,GRLGEYDIDEV [SMS_Y134_V132G],0.484
6,HITQVYGFYDE [PPP2CA_Y127_Q122H],0.651
7,RFLERYIFNPE [HLA-DPB1_Y57_R61P_YF],0.835
8,KSLFHHRQYSA [CPS1_Y1491_Y1491H],0.613
9,KKKKQYKDKFL [CASK_Y708_YF],0.408
10,DRLANYLEKVR [KRT40_Y103_S102N],0.731
11,CGTPEYRAPEI [PRKACA_Y205_L206R],0.735
12,EQYELYCEMGS [CBL_Y371],0.776
13,DQLVKYGVNPG [TMPO_Y127],0.498
14,CDIPRYIVSQL [MAST2_Y461],0.654
15,PFTDPYFDFEI [ZC3H18_Y371_A368T_YF],0.815
16,GMEIVYVFVKK [DNAI2_Y5_YF],0.787

# Molecular target: c-Src SH2
# Test: as above
row,Sequence,SH2 binding enrichment
1,EEQKKYYNAVK [SCN5A_Y1494_M1498V],0.584
2,HNVPIYEGYGL [ACTA1_Y168_A172G],1.33
3,EQKKFSNAMKK [SCN5A_Y1495_Y1495S_YF],0.642
4,SDFFAYSPVQE [H6PD_Y449_R453Q_YF],1.83
5,KKGIVYIFNGR [ITGAV_Y404],1.86
6,DNEYAYLKAII [HNF4A_Y288],0.391
7,GQAPGYSFTAA [CYCS_Y47_YF],0.577
8,KFDLMYAKHAF [TUBA1A_Y399_R402H],0.527
9,RGEKQYLAAPL [ALOX12_Y295],0.409
10,PMFTKYGNGLL [RPGRIP1L_Y196_S199G],0.421
11,KKFPDYIQIAR [SGMS2_Y59_M64R_YF],0.825
12,RFVSRYIFNRE [HLA-DQB1_Y62_T60S_YF],0.499
13,FIIFIYAMKKK [SLCO1B1_Y645_L643F_YF],0.758
14,NQDRTYFERVR [SPEN_Y632_S635R_YF],0.572
15,LRNIDYYRLDG [ATRX_Y2083],0.775
16,ADRNHYRRYRR [YBX1_Y145_P149R],0.538
17,SDMGQYQCLVF [AXL_Y115_T112M],0.437

row,Sequence,SH2 binding enrichment
1,DDLEVYLKHLL [SACS_Y3477],0.544
2,PLQKIYNYNVL [SLC4A1_Y553_T552I],1.54
3,LLEGKYEWQEV [CDKN1B_Y74_P69L],3.24
4,STSYDYCRVPM [BST2_Y8],1.54
5,GRLGEYDIDEV [SMS_Y134_V132G],0.555
6,HITQVYGFYDE [PPP2CA_Y127_Q122H],1.79
7,RFLERYIFNPE [HLA-DPB1_Y57_R61P_YF],0.794
8,KSLFHHRQYSA [CPS1_Y1491_Y1491H],0.341
9,KKKKQYKDKFL [CASK_Y708_YF],0.453
10,DRLANYLEKVR [KRT40_Y103_S102N],0.339
11,CGTPEYRAPEI [PRKACA_Y205_L206R],0.52
12,EQYELYCEMGS [CBL_Y371],0.629
13,DQLVKYGVNPG [TMPO_Y127],0.539
14,CDIPRYIVSQL [MAST2_Y461],0.406
15,PFTDPYFDFEI [ZC3H18_Y371_A368T_YF],0.649
16,GMEIVYVFVKK [DNAI2_Y5_YF],0.556

# Molecular target: Grb2 SH2 (UniProt P62993)
# Sequence (P62993 whole entry, looked up): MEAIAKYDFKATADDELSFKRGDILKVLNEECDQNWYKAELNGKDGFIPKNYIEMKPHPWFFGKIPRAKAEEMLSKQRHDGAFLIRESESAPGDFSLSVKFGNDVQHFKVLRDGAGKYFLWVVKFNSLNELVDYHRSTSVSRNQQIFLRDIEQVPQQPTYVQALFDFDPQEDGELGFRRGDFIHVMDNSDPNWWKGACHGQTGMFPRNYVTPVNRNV
# Test: as above
row,Sequence,SH2 binding enrichment
1,EEQKKYYNAVK [SCN5A_Y1494_M1498V],1.06
2,HNVPIYEGYGL [ACTA1_Y168_A172G],0.755
3,EQKKFSNAMKK [SCN5A_Y1495_Y1495S_YF],0.735
4,SDFFAYSPVQE [H6PD_Y449_R453Q_YF],0.704
5,KKGIVYIFNGR [ITGAV_Y404],2.3
6,DNEYAYLKAII [HNF4A_Y288],0.732
7,GQAPGYSFTAA [CYCS_Y47_YF],0.653
8,KFDLMYAKHAF [TUBA1A_Y399_R402H],0.847
9,RGEKQYLAAPL [ALOX12_Y295],0.709
10,PMFTKYGNGLL [RPGRIP1L_Y196_S199G],0.724
11,KKFPDYIQIAR [SGMS2_Y59_M64R_YF],1.13
12,RFVSRYIFNRE [HLA-DQB1_Y62_T60S_YF],0.733
13,FIIFIYAMKKK [SLCO1B1_Y645_L643F_YF],0.884
14,NQDRTYFERVR [SPEN_Y632_S635R_YF],0.857
15,LRNIDYYRLDG [ATRX_Y2083],0.874
16,ADRNHYRRYRR [YBX1_Y145_P149R],0.513
17,SDMGQYQCLVF [AXL_Y115_T112M],0.726

row,Sequence,SH2 binding enrichment
1,DDLEVYLKHLL [SACS_Y3477],0.752
2,PLQKIYNYNVL [SLC4A1_Y553_T552I],0.807
3,LLEGKYEWQEV [CDKN1B_Y74_P69L],0.801
4,STSYDYCRVPM [BST2_Y8],0.858
5,GRLGEYDIDEV [SMS_Y134_V132G],0.649
6,HITQVYGFYDE [PPP2CA_Y127_Q122H],0.754
7,RFLERYIFNPE [HLA-DPB1_Y57_R61P_YF],3.06
8,KSLFHHRQYSA [CPS1_Y1491_Y1491H],0.618
9,KKKKQYKDKFL [CASK_Y708_YF],0.683
10,DRLANYLEKVR [KRT40_Y103_S102N],0.764
11,CGTPEYRAPEI [PRKACA_Y205_L206R],0.767
12,EQYELYCEMGS [CBL_Y371],0.89
13,DQLVKYGVNPG [TMPO_Y127],0.888
14,CDIPRYIVSQL [MAST2_Y461],0.744
15,PFTDPYFDFEI [ZC3H18_Y371_A368T_YF],1.14
16,GMEIVYVFVKK [DNAI2_Y5_YF],0.941

# From the supplement of paper PMC10065799, “High-throughput profiling of sequence recognition by tyrosine kinases and SH2 domains using bacterial peptide display” (eLife, 2023)
